Experimental data: patent US12092631B2, “Optical thromboelastography systems and methods” (The General Hospital Corporation, priority 2014, dated 2024)

Tested on: human blood samples
Assay: OTEG fibrinolysis measurement (LY15) in human blood samples spiked with tPA
Details: human blood spiked with 0.5 μg/ml tPA (14% at 0 μg/ml), three repeated measurements, FIG. 13
Description: Dilutional coagulopathy is generated by serially diluting whole blood (30-60%) with phosphate buffer saline (PBS) solution to vary MA (FIGS. 9A, 9B, 9C). Diluted blood is treated with low to high doses of fibrinogen concentrate (80-160 μL) which also varies MA. Undiluted blood is treated with unfractionated heparin to reach a maximum concentration of 1 U/ml to vary PT, R and K times. To induce fibrinolysis, blood is spiked with varying concentrations of tissue plasminogen activator (tPA) to alter % LY (FIGS. 10A, 10B). Thrombocytopenia or low platelet count is achieved by blood centrifugation, and substitution of platelet-rich with platelet-poor plasma at varying doses, followed by subsequent reconstitution. […]
FIGS. 12, 12B, 12C, 12D, and 12E illustrate the effect of tissue plasminogen activator (tPA) on blood coagulation parameters (Clot Reaction Time, Clotting Time, Clot Progression Rate, Clot Stiffness, and Fibrinolysis) measured with OTEG according to an embodiment of the invention and TEG. […]
FIG. 13 illustrates reproducibility in OTEG-based fibrinolysis measurement of the parameter LY15 in human blood samples spiked with 0-0.5 μg/ml of tPA. The concentration of tPA from 0 to 0.5 μg/ml increases the fibrinolysis from 14% to 51%, which can be successfully detected with an embodiment of the invention. […]

B1: tPA: tissue plasminogen activator, spiked into blood to activate fibrinolysis (protein, UniProt P00750 36-562, looked up)
Tissue-type plasminogen …: SYQVICRDEKTQMIYQQHQSWLRPVLRSNRVEYCWCNSGRAQCHSVPVKSCSEPRCFNGGTCQQALYFSDFVCQCPEGFAGKCCEIDTRATCYEDQGISYRGTWSTAESGAECTNWNSSALAQKPYSGRRPDAIRLGLGNHNYCRNPDRDSKPWCYVFKAGKYSSEFCSTPACSEGNSDCYFGNGSAYRGTHSLTESGASCLPWNSMILIGKVYTAQNPSAQALGLGKHNYCRNPDGDAKPWCHVLKNRRLTWEYCDVPSCSTCGLRQYSQPQFRIKGGLFADIASHPWQAAIFAKHRRSPGERFLCGGILISSCWILSAAHCFQERFPPHHLTVILGRTYRVVPGEEEQKFEVEKYIVHKEFDDDTYDNDIALLQLKSDSSRCAQESSVVRTVCLPPADLQLPDWTECELSGYGKHEALSPFYSERLKEAHVRLYPSSRCTSQHLLNRTVTDNMLCAGDTRSGGPQANLHDACQGDSGGPLVCLNDGRMTLVGIISWGLGCGQKDVPGVYTKVTNYLDWIRDNMRP
  fibrinolysis (LY15): 51%
